Bounds are passed on as bounds.

This data set can be described thus: soluble fraction after stress (log2 fold change); higher = more stays soluble; pooled small domains, quantitative proteomics. The following applies: stress: 50 degC. The procedure, abridged: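 Custom libraries of small protein domains were pooled and measured in a high-throughput format, with quantitative proteomics as the read-out. Each library was stressed at 50°C. The value is the log2 fold change in the amount of each protein that stays soluble after stress, used as a measure of aggregation propensity; higher values mean more of the protein stays soluble.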
In the case of “HMSSLREQVADALRAHLVSGRMRPGVLYSAPKLAAEFGVSATPVREAMLDLVSEGLVDVVRNKGFRVT”, the “soluble fraction (log2)” value was -0.344. Under “HMSSPPNPQLAKRYISYSVDDIARLFGIHRHTVREWIKRGLPVIDQQRPLLVQGADLAEFLRKRRA” stands -0.719.

“HMSSPVIQINTRNDGWIIKLLQPAVEKDVLEGYLADVGLKLQSQMMEKILAAPAGTEFHIKRGSNILTE”: the “soluble fraction (log2)” value turned out to be 0.00933. With “HMSSQADEEALFKLLAANPYSDEQLEEIRIAIGSGIAYKDIIRIADIGNTAERMKQLRLEFTKDTAN”, the “soluble fraction (log2)” value is -0.0428.

Consider “HMSSQGSLEKGYSALLDGRLDDAALAYGAALAANPMERDALLGLAYVAHSKGRREEAQALYRKVLR”, for which the “soluble fraction (log2)” value came to 0.0715. “HMSSSTFVGRVAVITIGEARQNSPAEARFKDRHGTTHYVMVEPMEDVVFKQGDKVLLVESAGATFKVIEPA”: the “soluble fraction (log2)” value is -0.585. In the case of “HMSSTSISFNDFQKYWLSNDIKSFQLREDKMTVQGSLKNGTAYETVVPSERLFQFIGQHPKD” it was 0.368; in that of “HMSSVDLLSERERQVLARISRGMSNEEIAAELAITPRTVRNHLANIYGKIDVHSRAEAVVWARERGIT”, 0.0251; in that of “HMSSVEQAILETLSKEHSHLTSLQVFEEIRGRLPAVNQSTVYRALERLVEQGVVSVSDMGTHAAVYE”, -0.177.

With “HMSSVMMPDLTGESAIVAMERLQQLGLLPKVEEVDSYREPGIVLEQLPRAGEKIKRGRIAILKVSS”, the “soluble fraction (log2)” value is -0.26. Under “HMSSVTGMERFLSSGAVKGIGKTMAARIVEHFGTETMTVLESFPERLAEVPGIGAKKAEAIGQSYSEISD” stands 0.174. Turning to “HMSSVVARRARIATLVVETSVASQEELGRLLADEGITVTQATLSRDLDALGAVKVLSADGGTRYRIPGQ”, the “soluble fraction (log2)” value was -0.778. Under “HMSSVVVARTWTDTTGDFKVEAELLGVEGGLVRLKKEDGTVLSVPIAKLSTADRTFLQENQP” stands 0.144; under “HMSSWEDNFSYWIRNVAETLDKDLLNVANSKLEKIIINAALDQTNGKKNEAAILLGLGRNTLAKKIKELG”, -0.858. On to “HMSSWEEQLKIWAKNELASGNTDILARATVSFEQILIEAALTHTGGRKKTAAELLGWGRNTLTRKIKELHI”, for which the “soluble fraction (log2)” value is -0.29. Take “HMSSWEVLAEPIQTVMRRYGVPGAYEKLKEVTRGKSLTAEALHALIRSLDIPQADKERLLALTPAAWA”: the “soluble fraction (log2)” value was -0.703. For the sequence “HMSSYAEVMERSKYLQLHKYKIWKSETDGFWRTYYLNEQGKRKMKKLKHSEDMIDFVIEYVQNNE”, the “soluble fraction (log2)” value was -2.2. Regarding “HMSTDDILSSITALRLASVQFQLGQFDPALDSLKLVKEQAWSGAKNILAGDIQLAKGDKEAAKASYQQAQQ”, the “soluble fraction (log2)” value was -0.38. In the case of “HMSTDIPFNIFSQKWNADEIDSIVVENNKIEGKTKDNKKFSTYAPDELLTSLMENHKNPNVIVEFRAP” it was 0.277. On to “HMSTDKIDIVSSAILSSLKDNDGFIGLTDKSPPPEIYTAFRVSKKVFKQAIGALYKQRRITLESSGIRLIS”, for which the “soluble fraction (log2)” value is -0.193. In the case of “HMSTDSTQLLGFNKTGEELPIYKEANEENKFAEIPQNVYVKNFGQNGEFTKIKYLDQEGYVKTAGLK” it was ≥ 0.62; in that of “HMSTEEYDRGYEQGLEEAAKADDAWVANLIKIYSQNTPESMPETMKGRLDAFLYEQQRRAQSVPEM”, 0.307; in that of “HMSTIAAMADPRAWALEMLGFPPGTVKPSKREIQVRFRESLRDVHPDHGGDSRTASASINDLSEARRVLLS”, -0.188.

Consider “HMSTLGIRIKHYRTDSNLTQKELAGLINVKRDALANWETDRALPDVMNLKKLAEVFQVSTDELLQV”, for which the “soluble fraction (log2)” value is -0.927.

Regarding “HMSTLTGTQRAAVVLMQMSPPNAARVMAQFTDAEAEEIAAEIVRLRKVDPEVAEQIMKDFHEAALSS”, the “soluble fraction (log2)” value was -0.252. In the case of “HMSTLTLTSGTYAVGENIKAGKYTIMGSGSIAISSSGKARVNSNLTADRKDYVLNDDETIKIKGKAQFIPI” it was 0.11; in that of “HMSTMKIVRVKSNLKIGQEITSKDIEVVEVGAYNMPSEVMKNSEDVIGKYASAEMIKGEYVLAAKISDTP”, 0.479; in that of “HMSTMNRLPRHEQILKLVRANGFMPIEELARLLDVTPQTIRRDINTLSEENLLRRFHGGAALGPSVE”, -0.0842. In the case of “HMSTMTGTVDTPGASLNVRTGAWGPIVGQLAHGSKVTIIGSSGDWFKISYNGATRYVHKNYVNTT” it was -0.153; in that of “HMSTMVEIPNVVGMTIKEAKEALGNLGLSISKISGSNEDSAIVTEVSPAPGSSVKRDESITLVGQPK”, 0.0366; in that of “HMSTPAKVTPTNPIVKQLFNAAETQIKNKDIQNAIASYEKADTLTTDEKVKQYIHYQLSTLKDDN”, -0.14.

Take “HMSTPERQEVLDILKRQGEMTPLQIAGQISRTSKSVSNILSKLKREGFVANGAKYGSWVSTES”: the “soluble fraction (log2)” value worked out at 0.0492. Under “HMSTPTVDTKTKLDLYNLLYKKDLNYLDAYNFVLDNFGSDNIDIMFKMLGLDFTNWVIENKPE” stands 0.0375; under “HMSTQYKTGHYKTTDALNLRASYSTSSNVLLTIPKGKTIVVTRVHNNEWGQVEYNGKTGWIYLEYTAYTES”, 0.0697.

For “HMSTSAAELLRTARQQAGMSQSAVAELAKTSQSAIAMYEAGNREPSLPVLQRLLAATGHQLSLSVLP”, the “soluble fraction (log2)” value was -0.228. As to “HMSTTILSFQNRVVIETLHNEGRSLRYIANYLGFSKATIFNELHRLNSEYRAELAQADFERKVSQR”, the “soluble fraction (log2)” value is -3.59. In the case of “HMSTVAETVYNEIRDDILYGELQPGVKLKLEALRERYSVGVNTLREVLNRLVASGFVFVEGQKGFRVV” it was 0.0966; in that of “HMSTVEKDSELGGNFRIASYPTGKGQISEAIRSMIVRAKQVGVNIRLNTEATEEPLRALAPNAVILATG”, 0.0325; in that of “HMSTVELPVQINGKVRGRITVPANAGQEDVKQAALADSKVQRYIEGASIRKVIVVPRKLVNIVV”, 0.13. Under “HMSTVTGLINYLSSGLIKGVGEATARKLVDHFGLDVLDIIQFNPQRLLEVDGIGEARAEMIASSFSEQK” stands -0.399; under “HMSVDIIPGKADQKVRLIHDPAIVGVTTGGVKTAGPHTLIQIELGPNERPYKRLSLLELIPEG”, -0.115; under “HMSVDVGMQLRKLREERKISMRELARLSGLSANALSMIERGLTSPSVSTLNKLAGALEVPITAFFRI”, -0.285. For the sequence “HMSVEVPNLIGKTLDQVDIDLKSLDLSFVILDSARYNSSFKPLSVIDHQPISGAKVKVNRKIYLTINPS”, the “soluble fraction (log2)” value was -0.445. “HMSVKIELNENEQAIFTAVQKVNEAVLPELRAQFSDMSNKAWDNSVKMLTKNNLLKVSKEGEILYIRM”: the “soluble fraction (log2)” value was -0.567. Under “HMSVKSVSLRKISYKVRRGDSLYNIAKNFSLSINDITHWNSINKKSYLQPGQRLTLYINPRN” stands -1.71; under “HMSVKVFRDQILLNNDSDKMLQLSFSNLFGQKVLETSISPGKSAISTGNLPPGIYFITTSPATGVMRVII”, -1.12. In the case of “HMSVLRLGNRGPDVRKLQLLLNSTLVPSPQLTVDGDFGKRTEQAVVTFQQMRGLPQDGIVGQRTWALLGQT” it was -0.518. In the case of “HMSVLSVASKNQAINPGQVVALLKDGIKLNDDGRVEILDNNNNIRYNEKGNLLSIEERVKEFLDANPHFRQ” it was -0.368. For “HMSVLVLPMLKELTHEDREVVELFYLNDMSVREIALIISVPIGTVKSRLHRARAQLKHQIVNLNQ”, the “soluble fraction (log2)” value is -3.03. Turning to “HMSVPVNAPMPGTILDIKVKAGAAVKAGDVVMILEAMKMENEISAPQDGTIASIDVRKGDTVNSGDVLYTM”, the “soluble fraction (log2)” value turned out to be 0.0456.

The values above are taken from the domain aggregation screens of Martell et al. (2025).
